For assay [1], the target named is Abl3D (UniProt P00519 38-512). As to the kind of experiment: cell-based or functional assay.
Assay [2] concerns the target Fyn (human (endogenous in K562), UniProt P06241 1-537). As to the kind of experiment: cell-based or functional assay.

Sequence of Fyn (P06241 whole entry): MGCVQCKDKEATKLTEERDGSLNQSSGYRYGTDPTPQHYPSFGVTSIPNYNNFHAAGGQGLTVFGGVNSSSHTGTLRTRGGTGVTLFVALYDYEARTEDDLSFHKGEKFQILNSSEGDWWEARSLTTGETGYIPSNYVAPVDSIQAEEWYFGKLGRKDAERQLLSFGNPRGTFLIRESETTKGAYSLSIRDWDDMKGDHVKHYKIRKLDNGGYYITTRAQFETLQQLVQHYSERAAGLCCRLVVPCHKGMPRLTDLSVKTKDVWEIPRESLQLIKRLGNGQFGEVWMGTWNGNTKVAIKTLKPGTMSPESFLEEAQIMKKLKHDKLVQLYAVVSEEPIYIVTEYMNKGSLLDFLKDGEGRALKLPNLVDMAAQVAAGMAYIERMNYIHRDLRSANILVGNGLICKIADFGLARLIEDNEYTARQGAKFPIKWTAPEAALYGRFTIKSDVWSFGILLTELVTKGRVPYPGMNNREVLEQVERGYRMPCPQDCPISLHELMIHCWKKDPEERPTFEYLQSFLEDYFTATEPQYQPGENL
Sequence of Abl3D (P00519 38-512): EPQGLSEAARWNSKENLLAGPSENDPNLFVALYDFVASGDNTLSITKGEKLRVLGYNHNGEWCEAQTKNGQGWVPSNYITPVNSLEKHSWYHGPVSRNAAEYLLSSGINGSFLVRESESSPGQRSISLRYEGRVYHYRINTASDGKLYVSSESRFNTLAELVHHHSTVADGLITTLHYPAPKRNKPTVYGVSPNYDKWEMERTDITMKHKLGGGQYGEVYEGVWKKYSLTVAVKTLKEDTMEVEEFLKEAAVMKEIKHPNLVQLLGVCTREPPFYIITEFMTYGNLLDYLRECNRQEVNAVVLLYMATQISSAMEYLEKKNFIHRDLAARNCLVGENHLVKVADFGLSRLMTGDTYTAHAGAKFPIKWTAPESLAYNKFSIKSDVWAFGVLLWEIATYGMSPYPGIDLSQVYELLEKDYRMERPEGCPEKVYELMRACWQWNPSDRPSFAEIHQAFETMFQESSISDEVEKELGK

B1: SNAP(HA4)-4 (designed binder)
chain: DKDCEMKRTTLDSPLGKLELSGCEQGLHEIIFLGKGTSAADAVEVPAPAAVLGGPEPLMQATAWLNAYFHQPEAIEEFPVPALHHPVFQQESFTRQVLWKLLKVVKFGEVISYSHLAALAGNPAATAAVKTALSGNPVPILIPCHRVVQGDLDVGGYEGGLAVKEWLLAHEGHRLGKVSSVPTKLEVVAATPTSLLISWDAPMSSSSVYYYRITYGETGGNSPVQEFTVPYSSSTATISGLSPGVDYTITVYAWGEDSAGYMFMYSPISINYRT
modifications: compound 4 (O6-benzylguanine derivative of the pan-kinase inhibitor 2) covalently conjugated to SNAPtag
In the case of B1, in assay [1], the “IC50, in vitro kinase activity assay of Abl3D” value is 8.3 nM. Also, the “IC50 of kinase activity of purified FYN, relative to monovalent 4” value in assay [2] was 8 fold more potent than 4.
